# Laboratory results: article PMC4010280
# B1: rTSγ (HsrTSγ) (Homo sapiens) (protein)
# chain: MVRGRISRLSVRDVRFPTSLGGHGADAMHTDPDYSAAYVVIETDAEDGIKGCGITFTLGKGTEVVVCAVNALAHHVLNKDLKDIVGDFRGFYRQLTSDGQLRWIGPEKGVVHLATAAVLNAVWDLWAKQEGKPVWKLLVDMDPRMLVSCIDFRYITDVLTEEDALEILQKGQIGKKEREKQMLAQGYPAYTTSCAWLGYSDDTLKQLCAQALKDGWTRFKVKVGADLQDDMRRCQIIRDMIGPEKTLMMDANQRWDVPEAVEWMSKLAKFKPLWIEEPTSPDDILGHATISKALVPLGIGIATGEQCHNRVIFKQLLQAKALQFLQIDSCRLGSVNENLSVLLMAKKFEIPVCPHAGGVGLCELVQHLIIFDYISVSASLENRVCEYVDHLHEHFKYPVMIQRASYMPPKDPGYSTEMKEESVKKHQYPDGEVWKKLLPA
# What was measured:
# purified protein [1] = substrate: O=C(O)[C@H](O)C(O)[C@@H](O)C(=O)O; assay: purified protein
# purified protein [2] = substrate: O=C(O)[C@H](O)[C@H](O)[C@H](O)CO; assay: purified protein
# purified protein [3] = substrate: O=C(O)[C@@H](O)[C@H](O)[C@H](O)[C@@H](O)CO; assay: purified protein
# purified protein [4] = substrate: O=C(O)[C@@H](O)[C@H](O)[C@H](O)CO; assay: purified protein
# [5] = substrate: C[C@H](O)[C@@H](O)[C@@H](O)[C@H](O)C(=O)O; assay: coupled enzyme dehydration assay; type: biochemical, Homo sapiens
protein,measurement,setting,value
B1,kcat,purified protein [1],0.3 ± 0.004 s⁻¹
same,kcat/Km,purified protein [1],75 M⁻¹ s⁻¹
same,kcat,purified protein [2],0.002 ± 0.001 s⁻¹
same,kcat/Km,purified protein [2],5 M⁻¹ s⁻¹
same,kcat,purified protein [3],0.3 ± 0.01 s⁻¹
same,kcat/Km,purified protein [3],100 M⁻¹ s⁻¹
same,kcat,purified protein [4],0.04 ± 0.002 s⁻¹
same,kcat/Km,purified protein [4],20 M⁻¹ s⁻¹
same,kcat,[5],0.5 ± 0.006 s⁻¹
same,kcat/Km,[5],2500 M⁻¹ s⁻¹
